Measurements published in patent US20260209383A1, “SITE-[…] […] ANTIBODY DRUG CONJUGATES” (SEAGEN INC., priority 2022, published 2026).

Columns and labels:
[1] = tested on: HPAFII cells; test: In vitro cytotoxicity assay (CellTiter-Glo), HPAFII; format: cell-based
Description: (§1) In vitro cytotoxicity assay: The cytotoxic effect of an EC4-based ADC was measured by a cell proliferation assay employing the protocol in the Promega Corp. Technical Bulletin TB288; and Mendoza et a1., 2002, Cancer Res. 62:5485-5488), the methods of which are specifically incorporated by reference herein. Briefly, an aliquot of 40 μl of cell culture containing about 400 cells in medium was deposited in each well of a 384-well, opaque-walled plate. A 10 μL aliquot of free cytotoxic agent or ADC was added to the experimental wells and incubated for 96 hr and then incubated at room temperature for approximately 30 mins whereupon a volume of CellTiter-Glo™ reagent equal to the volume of cell culture medium present in each well was added. The contents were mixed for 2 mins on an orbital shaker to induce cell lysis and the plate was incubated at room temperature for 10 mins to stabilize the luminescence signal for recordation.
Anti-ITGB6 ADCs were tested for potency. The antibodies were engineered with the cysteine pairs disclosed above in the previous Examples. The efficacy of anti-ITGB6 EC4 ADCs were also tested against conventional anti-ITGB6 ADCs. The cells were treated with conventional or EC4 ADCs, then the remaining cells were counted to assess the cytotoxic effects of each EC4 variant compared to conventional ADCs. […]

[2] = tested on: BxPC-3 cells; test: In vitro cytotoxicity assay (CellTiter-Glo), BxPC-3; format: cell-based
Description: as §1
Anti-ITGB6 ADCs were tested for potency. The antibodies were engineered with the cysteine pairs disclosed above in the previous Examples. The efficacy of anti-ITGB6 EC4 ADCs were also tested against conventional anti-ITGB6 ADCs. The cells were treated with conventional or EC4 ADCs, then the remaining cells were counted to assess the cytotoxic effects of each EC4 variant compared to conventional ADCs. […] Cytotoxicity in BxPC-3 cells increased when the cells were treated with greater than 50 ng/mL of the positive control, conventional anti-ITGB6 ADCs (h2A2-mc-vc-MMAE). […] Both h2A2-mc-vc-MMAE and h2A2 S400C S114C-mc-vc-MMAE were cytotoxic to HPAFII cells when greater than 10 ng/mL ADC were used on the cells.

B1: h2A2-mc-vc-MMAE(4): conventional anti-ITGB6 ADC, h2A2 without engineered cysteines conjugated with mc-vc-MMAE; positive control (conjugate)
VH: QFQLVQSGAEVKKPGASVKVSCKASGYSFTDYNVNWVRQAPGQGLEWIGVINPKYGTTRYNQKFKGRATLTVDKSTSTAYMELSSLRSEDTAVYYCTRGLNAWDYWGQGTLVTVSS
VL: DIQMTQSPSSLSASVGDRVTITCGASENIYGALNWYQQKPGKAPKLLIYGATNLEDGVPSRFSGSGSGRDYTFTISSLQPEDIATYYCQNVLTTPYTFGQGTKLEIK
% viability at top concentration [1]: 35% | x50 ([1]; 96 hr): 199 ng/mL | % viability at top concentration ([2]; BXPC3): 36% | x50 ([2]; BXPC3, 96 hr): 251 ng/mL | ADC concentration above which cytotoxicity increased ([2]; BxPC-3 cells): greater than 50 ng/mL
